Experimental data from US9879094B2, “Nucleic acid molecules encoding for BACE1 antibodies” (Genentech, Inc., priority 2010, dated 2018).

Legend:
[1] = Serum PK in BALB/C and BACE1 knock-out mice; format: in vivo, mouse
Protocol: Additionally, PK data was obtained after dosing with YW412.8.31 anti-BACE1 antibody in wild-type and BACE1 knock-out mice. A single dose of anti-BACE1 (1 or 10 mg/kg) was delivered via IV injection to BALB/C mice. Serum PK was analyzed out to 21 days post-dose.
Total anti-BACE1 antibody concentrations in mouse serum and brain samples were measured as follows. Antibody concentrations in mouse serum and brain samples were measured using an enzyme-linked immunosorbent assay (ELISA). NUNC 384 well Maxisorp immunoplates (Neptune, N.J.) were coated with F(ab′)2 fragment of donkey anti-human IgG, Fc fragment specific polyclonal antibody (Jackson ImmunoResearch, West Grove, Pa.) overnight at 4° C. Plates were blocked with phosphate-buffered saline (PBS) containing 0.5% bovine serum albumin (BSA) for 1 hour at room temperature the next day. Each antibody (Control IgG and anti-BACE1) was used as a standard to quantify the respective antibody concentrations. […] Bound antibody was detected with horseradish peroxidase conjugated F(ab′)2 goat anti-human IgG, Fc specific polyclonal antibody (Jackson ImmunoResearch). […] Absorbance was measured at a wavelength of 450 nm with a reference of 630 nm on a Multiskan Ascent reader (Thermo Scientific, Hudson, N.H.). Concentrations were determined from the standard curve using a four-parameter non-linear regression program. […]

[2] = test system: Aβ1-40 and Aβ1-42 in hAPP transgenic mice; assay: hAPP transgenic mice, continuous ICV infusion, Aβ levels; format: in vivo, mouse; settings: ICV infusion 7 days
Protocol: Similar experiments were also performed in which YW412.8.31 anti-BACE1 antibody was delivered systemically or directly into hAPP transgenic mice brains by continuous ICV infusion. For ICV delivery, antibody was delivered continuously for 7 days via an Alzet osmotic minipump (model 2001) implanted unilaterally. The amount of YW412.8.31 antibody delivered was 0.041 mg/day (low dose) or 0.41 mg/day (high dose); 0.33 mg/day Control IgG was delivered to the control group. At euthanasia, plasma, cortex, and hippocampus were harvested and analyzed for levels of soluble Aβ1-40 and Aβ1-42 by ELISA (The Genetics Company) following manufacturer's instructions.

[3] = test system: mouse cortical neurons; assay: Antibody internalization in primary neurons; format: cell-based
Protocol: BACE1 is known to be expressed intracellularly, particularly in the Golgi. To ascertain whether or not YW412.8.31 interacts with BACE1 in an intracellular environment, internalization studies were performed. One set of neuronal cultures was prepared from E13.5 dorsal root ganglia (DRG) explants, and a second set of neuronal cultures was prepared from E16.5 dissociated cortical neurons from BACE1+/+ or BACE1−/− mice and cultured for 24 or 72 hours, respectively, at 37° C. Media containing 0.5 μM YW412.8.31 anti-BACE1 antibody was added to the cultures for time periods varying from 30 minutes to 2 hours, and incubated at either 4° C. or 37° C. Unbound antibody was washed out thoroughly with PBS after treatment. […] Bound antibody was detected using a secondary Alexa 568-conjugated anti-Human IgG1 antibody (Molecular Probes) according to the manufacturer's directions.
Additionally, mouse cortical neurons were cultured in the presence of YW412.8.31 anti-BACE1 antibody or a control IgG for 10 minutes or 3 hours, after which the antibody was detected by immunostaining Neuronal cultures were prepared from E15.5 dissociated cortical neurons, and cultured for 14 DIV. […] Bound antibody was detected using an Alexa 568-conjugated anti-Human IgG1 secondary antibody (Molecular Probes). […]

B1: YW412.8.31: affinity matured form of YW412.8 anti-BACE1 antibody (antibody, V domains shown)
VH: EVQLVESGGGLVQPGGSLRLSCAASGFTFLGYGIHWVRQAPGKGLEWVGWISPAGGSTDYADSVKGRFTISADTSKNTAYLQMNSLRAEDTAVYYCARGPFSPWVMDYWGQGTLVTVSS
VL: DIQMTQSPSSLSASVGDRVTITCRASQDVSTAVAWYQQKPGKAPKLLIYSASFLYSGVPSRFSGSGSGTDFTLTISSLQPEDFATYYCQQFPTYLPTFGQGTKVEIK
serum PK kinetics ([1]; 1 or 10 mg/kg single IV, BALB/C mice, to 21 days): non-linear | serum PK kinetics ([1]; single dose, BACE1−/− mice): linear PK | Aβ reduction following ICV infusion [2]: 15-23% | reduction of Aβ1-40 and Aβ1-42 in cortex ([2]; both doses): 15-23% | reduction of Aβ1-40 and Aβ1-42 in hippocampus ([2]; both doses): 15-20% | localization of antibody signal ([3]; 1 μM, 10 minutes to 3 hours, 37° C.): localized intracellularly | co-localization with vesicular compartment markers ([3]; TfR, VAMP4, LAMP1 co-staining): co-localized with markers for early endosomes and TGN, but not lysosomes
